Assay [1] has as its target P450 17A1 peptide (putative b5 binding site of P450 17A1) (human). As to the kind of experiment: fluorescence polarisation; competition: nonlabeled WT b5 at various concentrations added to the complex of Alexa 488-b5 K77C (10 nM) and P450 17A1 peptide (100 μM). For orientation: In fluorescence polarisation assays a small probe gives low polarisation when free and higher when bound to something large.

Assay [2] has the same target. As to the kind of experiment: fluorescence polarisation; competition: nonlabeled WT b5 at various concentrations added to the complex of Alexa 488-b5 T70C (10 nM) and P450 17A1 peptide (100 μM).
Assay [3] concerns the target previously constructed Alexa 488-T70C-b5 (ref. 19; nonspecifically labelled) (human) (UniProt P00167). The assay can be described thus: SDS-PAGE with and without reducing agent; purified b5 variant run with or without β-mercaptoethanol (10%, v/v) or DTT; monomer at 17 kDa, dimer at 34 kDa; disulfide-linked dimer.
For assay [4], the target named is human cytochrome b5 K24C, unlabeled (human) (UniProt P00167). Described as above.
For assay [5], the target named is cytochrome P450 17A1 (Homo sapiens) (UniProt P05093). As to the kind of experiment: surface plasmon resonance. The note with it: cited from earlier work. Background: Surface plasmon resonance follows binding to a sensor surface in real time, without labels.
Assay [6] addresses human cytochrome b5 T70C, unlabeled (human) (UniProt P00167). As to the kind of experiment: SDS-PAGE with and without reducing agent; purified b5 variant run with or without β-mercaptoethanol (10%, v/v) or DTT; monomer at 17 kDa, dimer at 34 kDa; disulfide-linked dimer.
For assay [7], the target named is Alexa 488-labeled human cytochrome b5 K77C (human) (UniProt P00167). The assay can be described thus: fluorescence polarisation; P450 17A1 protein or P450 17A1 peptide added to Alexa 488-labeled b5 variant (10 nM) in 1 mM potassium phosphate buffer, pH 7.4, 384-well plate, 50 μl; anisotropy fitted with a quadratic equation.
Assay [8] deals with Alexa 488-labeled human cytochrome b5 T70C (singly labelled at Cys-70, this paper) (human) (UniProt P00167). Described as above.

The IC50 is the concentration that inhibits the measured activity by half. The low end stands for greater potency, the high end for weaker potency. Consider “human cytochrome b5, WT, nonlabeled (from UniProt P00167 1-134) (natural protein)”, for which the IC50 in assay [1] was determined as 223 nM; in assay [2], 129 nM.

In general, stoichiometry N refers to the number of molecules, sites or subunits per partner or assembly. In the case of “previously constructed Alexa 488-T70C-b5 (ref. 19; nonspecifically labelled) (from UniProt P00167 1-134) (natural protein)”, the stoichiometry N in assay [3] was 2.

In the case of “human cytochrome b5 K24C, unlabeled (from UniProt P00167 1-134) (natural protein)”, the stoichiometry N in assay [4] was found to be 2.

One may read the Kd as a measure of binding affinity in units of concentration. As for cytochrome b5 (from UniProt P00167), the Kd in assay [5] was 440 nM.

For “human cytochrome b5 T70C, unlabeled (from UniProt P00167 1-134) (natural protein)”, the stoichiometry N in assay [6] worked out at 2.

B1: human cytochrome P450 17A1 (steroid 17α-hydroxylase/17,20-lyase) (enzyme)
chain: MWELVALLLLTLAYLFWPKRRCPGAKYPKSLLSLPLVGSLPFLPRHGHMHNNFFKLQKKYGPIYSVRMGTKTTVIVGHHQLAKEVLIKKGKDFSGRPQMATLDIASNNRKGIAFADSGAHWQLHRRLAMATFALFKDGDQKLEKIICQEISTLCDMLATHNGQSIDISFPVFVAVTNVISLICFNTSYKNGDPELNVIQNYNEGIIDNLSKDSLVDLVPWLKIFPNKTLEKLKSHVKIRNDLLNKILENYKEKFRSDSITNMLDTLMQAKMNSDNGNAGPDQDSELLSDNHILTTIGDIFGAGVETTTSVVKWTLAFLLHNPQVKKKLYEEIDQNVGFSRTPTISDRNRLLLLEATIREVLRLRPVAPMLIPHKANVDSSIGEFAVDKGTEVIINLWALHHNEKEWHQPDQFMPERFLNPAGTQLISPSVSYLPFGAGPRSCIGEILARQELFLIMAWLLQRFDLEVPDDGQLPSLEGIPKVVFLIDSFKVKIKVRQAWREAQAEGST
With B1, the Kd in assay [7] is 125 nM; in assay [8], 379 nM.

B2: P450 17A1 peptide (putative b5 binding site of P450 17A1) (peptide)
peptide: RNRLLLLEATIR
For B2, the dissociation constant (Kd) in assay [7] is 52000 nM; in assay [8], 113000 nM.

These data come from article PMC10878793.
